Source: patent publication US20250388676A1 (Sanofi, published 2025)

T1: human GITR (human, UniProt Q9Y5U5 26-241)
T1 sequence (looked up): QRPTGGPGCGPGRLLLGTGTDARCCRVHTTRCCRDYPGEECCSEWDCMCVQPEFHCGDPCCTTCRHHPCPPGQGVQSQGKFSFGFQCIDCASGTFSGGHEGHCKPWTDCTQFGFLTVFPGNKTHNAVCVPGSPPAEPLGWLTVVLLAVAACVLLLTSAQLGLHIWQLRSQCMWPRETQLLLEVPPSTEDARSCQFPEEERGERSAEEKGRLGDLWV

B1: GITRLmut/anti-PD-1 mAb2 (antibody, V domains shown)
VH: QLQLQESGPGLVKPSETLSLTCTVSGGSISSSSYFWGWIRQPPGKGLEWIGSIYRSGSTYYNPSLKSRVTISVDTSKNQFSLKLSSVTAADTAVYYCARGITGDPGDYWGQGTLVTVSS
VL: EIVLTQSPATLSLSPGERATLSCGASQSVPINFLAWYQQKPGLAPRLLIYEASSRHTGIPDRFSGSGSGTDFTLTISRLEPEDFAVYYCGQYGSSPYTFGQGTKLEIK
B2: GITRLmut/anti-PD-1 mAb1 (antibody, V domains shown)
VH: QLQLQESGPGLVKPSETLSLTCTVSGGSISTSSYFWGWIRQPPGKGLEWIGSIYRSGSTYYNPSLKSRVTISVDTSKNQFSLKLSSVTAADTAVYYCARGITGDPGDYWGQGTLVTVSS
VL: EIVLTQSPATLSLSPGERATLSCGASQSVSINFLAWYQQKPGLAPRLLIYEASSRATGIPDRFSGSGSGTDFTLTISRLEPEDFAVYYCQQYGSSPYTFGQGTKLEIK
B3: GITRL/anti-PD-1 mAb2 (bispecific antibody, human IgG1, kappa, L234A L235A)
heavy: not shown
light: EIVLTQSPATLSLSPGERATLSCGASQSVPINFLAWYQQKPGLAPRLLIYEASSRHTGIPDRFSGSGSGTDFTLTISRLEPEDFAVYYCGQYGSSPYTFGQGTKLEIKRTVAAPSVFIFPPSDEQLKSGTASVVCLLNNFYPREAKVQWKVDNALQSGNSQESVTEQDSKDSTYSLSSTLTLSKADYEKHKVYACEVTHQGLSSPVTKSFNRGEC
notes: Single-chain GITRL trimer inserted between VH and CH1 of each heavy chain; bivalent for PD-1, hexavalent for GITR; also called GITRL trimer/anti-PD-1 mAb2; single-chain GITRL trimer/anti-PD-1 mAb2
B4: GITRL/anti-PD-1 mAb1 (bispecific antibody, human IgG1, kappa, L234A L235A)
heavy: not shown
light: EIVLTQSPATLSLSPGERATLSCGASQSVSINFLAWYQQKPGLAPRLLIYEASSRATGIPDRFSGSGSGTDFTLTISRLEPEDFAVYYCQQYGSSPYTFGQGTKLEIKRTVAAPSVFIFPPSDEQLKSGTASVVCLLNNFYPREAKVQWKVDNALQSGNSQESVTEQDSKDSTYSLSSTLTLSKADYEKHKVYACEVTHQGLSSPVTKSFNRGEC
notes: Single-chain GITRL trimer inserted between VH and CH1 of each heavy chain; bivalent for PD-1, hexavalent for GITR; also called GITRL trimer/anti-PD-1 mAb1; single-chain GITRL trimer/anti-PD-1 mAb1

Assays:
[1] = target: T2, human PD-1 (human, UniProt Q15116 25-288); assay: receptor occupancy by flow cytometry on activated splenic CD4+ T cells of hGITR/hPD-1 KI mice; free PD-1 detected with competing Anti-hPD-1-BV421, total PD-1 with non-competing Anti-hPD-1 NANOBODY-A647 [panel A]
T2 construct: On pre-B 300.19 cells stably expressing human PD-1, on NFAT-RE/PD-1 Jurkat reporter cells and on T cells of hGITR/hPD-1 knock-in mice; also called hPD-1; PD1 (on reporter cells)
T2 sequence (Q15116 25-288 limits assumed): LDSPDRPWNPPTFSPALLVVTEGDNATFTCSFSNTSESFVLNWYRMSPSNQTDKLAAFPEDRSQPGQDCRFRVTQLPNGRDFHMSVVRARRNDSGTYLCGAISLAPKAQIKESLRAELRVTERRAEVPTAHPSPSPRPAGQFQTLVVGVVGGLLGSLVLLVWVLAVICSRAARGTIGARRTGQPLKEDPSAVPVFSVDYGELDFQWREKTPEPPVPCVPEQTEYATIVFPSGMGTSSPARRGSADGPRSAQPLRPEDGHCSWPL
Text: (§1) Anti-hGITR NANOBODY®-A488 as non-competing agent detecting total GITR Activated T cells were then washed and analyzed on a Cytek® Aurora flow cytometer.

[2] = target: T2, human PD-1; assay: flow cytometry on pre-B 300.19 cells expressing human PD-1, detection with anti-human IgG Fc F(ab')2 [panel A]
[3] = target: T3, cynomolgus PD-1 (cynomolgus monkey); assay: flow cytometry on pre-B 300.19 cells expressing cyno PD-1, detection with anti-human IgG Fc F(ab')2 [panel B]
T3 construct: whole, on cells; also called cyno PD-1; cyPD-1

[4] = target: T2, human PD-1; assay: receptor occupancy by flow cytometry on activated splenic CD8+ T cells of hGITR/hPD-1 KI mice; free PD-1 detected with competing Anti-hPD-1-BV421, total PD-1 with non-competing Anti-hPD-1 NANOBODY-A647 [panel A]
Text: as §1

[5] = target: T4, cynomolgus GITR (cynomolgus monkey); assay: flow cytometry on NFkB-NlucP/HEK293 cells expressing cyno GITR, anti-human IgG Fc detection, 4PL fit
T4 construct: whole, on cells; also called cyno GITR; cyGITR
Experimental: (§2) Binding properties of the bispecific molecules and controls to multiple targets expressed on cell surfaces were evaluated with flow cytometry. […] Cell suspensions were analyzed with iQue Screener 3 (Sartorius, Intellicyt). In each washing step, plates were centrifuged for 2 minutes at 300×g at 4° C., supernatants discarded and buffer dispensed by Biotek ELX405 microplate washer (BioTek). Other reagents were added either manually or with ViaFlo (Integra). EC50s were estimated by dose response modelling. Curves were fit using 4 parameter logistic regression in GraphPad (GraphPad Software Inc.).

[6] = target: T1, human GITR; assay: cell-based or functional assay
[7] = target: T4, cynomolgus GITR; assay: cell-based or functional assay
[8] = target: T2, human PD-1; assay: cell-based or functional assay
[9] = target: T3, cynomolgus PD-1; assay: flow cytometry on pre-B 300.19 cells expressing cyno PD-1, anti-human IgG Fc detection, 4PL fit
Experimental: as §2

[10] = target: T1, human GITR; assay: receptor occupancy by flow cytometry on activated splenic CD8+ T cells of hGITR/hPD-1 KI mice; free GITR detected with competing Anti-hGITR-BV605, total GITR with non-competing Anti-hGITR NANOBODY-A488 [panel B]
Text: as §1

[11] = target: T1, human GITR; assay: flow cytometry on NFkB-NlucP/HEK293 cells expressing human GITR, anti-human IgG Fc detection, 4PL fit
Experimental: as §2

[12] = target: T2, human PD-1; assay: flow cytometry on pre-B 300.19 cells expressing human PD-1, anti-human IgG Fc detection, 4PL fit
Experimental: as §2

[13] = target: T1, human GITR; assay: receptor occupancy by flow cytometry on activated splenic CD4+ T cells of hGITR/hPD-1 KI mice; free GITR detected with competing Anti-hGITR-BV605, total GITR with non-competing Anti-hGITR NANOBODY-A488 [panel B]
Text: as §1

Binder	EC50 (read off the curve) [1]	EC50 (read off the curve) [2]	EC50 (read off the curve) [3]	EC50 (read off the curve) [4]	EC50 [5]	hGITR EC50 (reporter assay) [6]	cyGITR EC50 (reporter assay) [7]	hPD-1 IC50 (reporter assay) [8]	EC50 [9]	EC50 (read off the curve) [10]	EC50 [11]	EC50 [12]	EC50 (read off the curve) [13]
B1	~0.4 nM	~0.2 nM	~0.4 nM	~0.3 nM									
B2		~0.3 nM	~0.5 nM										
B3	~0.03 nM			~0.03 nM	0.034 nM	0.0077 nM	0.0083 nM	0.5 nM	0.37 nM	~0.2 nM	0.034 nM	0.24 nM	~0.2 nM
B4					0.014 nM	0.0087 nM	0.01 nM	0.56 nM	0.58 nM		0.014 nM	0.33 nM	
